The values below come from patent US20260337282 (published 2026).

Like-named read-outs stand apart in the source and are kept apart here.

Holding throughout (experiment): FACS
A general note: In flow cytometry, cells or beads pass a laser one at a time.

Test [1] concerns the target human CCR8 (human).
For test [2], the target named is T1, mouse CCR8 (mouse).
T1 chain: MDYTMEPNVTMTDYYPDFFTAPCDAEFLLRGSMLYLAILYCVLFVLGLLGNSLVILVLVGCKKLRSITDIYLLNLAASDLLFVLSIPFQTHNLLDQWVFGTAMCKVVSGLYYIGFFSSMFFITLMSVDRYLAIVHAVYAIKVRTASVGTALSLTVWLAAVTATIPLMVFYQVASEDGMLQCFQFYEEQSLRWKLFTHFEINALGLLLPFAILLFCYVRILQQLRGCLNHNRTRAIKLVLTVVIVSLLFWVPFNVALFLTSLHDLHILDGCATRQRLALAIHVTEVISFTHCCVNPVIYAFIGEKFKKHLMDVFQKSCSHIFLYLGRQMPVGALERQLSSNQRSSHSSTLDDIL

Test [3] concerns the target human CCR8 (human). The source holds these as a separate data set.
Test [4] concerns the target T1, mouse CCR8.
The target in test [5] is human CCR8 (human). The source holds these as a separate data set.
The target in another test is T2, human CCR4 (human).
T2 chain: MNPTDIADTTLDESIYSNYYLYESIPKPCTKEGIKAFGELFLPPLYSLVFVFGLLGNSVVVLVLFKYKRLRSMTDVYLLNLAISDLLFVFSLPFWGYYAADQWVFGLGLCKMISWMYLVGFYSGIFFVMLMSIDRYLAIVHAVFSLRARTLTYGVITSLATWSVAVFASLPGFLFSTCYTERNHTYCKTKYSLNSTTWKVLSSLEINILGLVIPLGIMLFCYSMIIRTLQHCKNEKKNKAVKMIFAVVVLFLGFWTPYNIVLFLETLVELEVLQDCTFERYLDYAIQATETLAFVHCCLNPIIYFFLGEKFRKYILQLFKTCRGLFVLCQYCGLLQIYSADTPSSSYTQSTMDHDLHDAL

The next test deals with T3, human CCR2 (human).
T3 chain: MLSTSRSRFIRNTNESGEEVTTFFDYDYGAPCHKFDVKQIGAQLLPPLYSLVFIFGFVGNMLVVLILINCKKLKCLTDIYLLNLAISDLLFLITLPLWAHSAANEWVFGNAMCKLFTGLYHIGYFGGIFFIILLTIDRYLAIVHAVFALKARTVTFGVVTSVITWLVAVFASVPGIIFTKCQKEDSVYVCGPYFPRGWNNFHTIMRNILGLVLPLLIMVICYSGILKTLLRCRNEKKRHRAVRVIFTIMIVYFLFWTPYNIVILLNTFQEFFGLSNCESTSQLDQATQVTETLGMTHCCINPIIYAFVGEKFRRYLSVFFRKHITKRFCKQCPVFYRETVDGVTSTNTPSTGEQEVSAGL

The next test has as its target T4, human CX3CR1 (human).
T4 chain: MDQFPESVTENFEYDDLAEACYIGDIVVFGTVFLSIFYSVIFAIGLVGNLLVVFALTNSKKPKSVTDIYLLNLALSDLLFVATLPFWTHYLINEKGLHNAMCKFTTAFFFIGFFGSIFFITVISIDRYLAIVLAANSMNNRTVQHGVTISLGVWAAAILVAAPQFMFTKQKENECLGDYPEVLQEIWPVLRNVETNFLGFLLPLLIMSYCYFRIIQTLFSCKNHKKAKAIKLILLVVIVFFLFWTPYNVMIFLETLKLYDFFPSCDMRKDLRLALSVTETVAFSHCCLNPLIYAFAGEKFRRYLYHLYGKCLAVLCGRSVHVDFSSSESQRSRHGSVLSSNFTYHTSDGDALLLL

A further test deals with human CCR5 (human).
Chain of human CCR5 (human) (O14692 whole entry): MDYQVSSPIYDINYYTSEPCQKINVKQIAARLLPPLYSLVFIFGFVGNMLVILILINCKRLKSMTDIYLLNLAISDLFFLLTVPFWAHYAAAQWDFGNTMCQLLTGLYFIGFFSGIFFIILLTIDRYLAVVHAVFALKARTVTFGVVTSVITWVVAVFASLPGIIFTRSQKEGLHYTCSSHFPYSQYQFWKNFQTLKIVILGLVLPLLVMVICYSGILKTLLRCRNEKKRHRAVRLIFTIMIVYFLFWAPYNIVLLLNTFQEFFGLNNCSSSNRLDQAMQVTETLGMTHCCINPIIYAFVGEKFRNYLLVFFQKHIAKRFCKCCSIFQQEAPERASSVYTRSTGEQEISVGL

Chain of human CCR8 (human) (chain, as listed by the source): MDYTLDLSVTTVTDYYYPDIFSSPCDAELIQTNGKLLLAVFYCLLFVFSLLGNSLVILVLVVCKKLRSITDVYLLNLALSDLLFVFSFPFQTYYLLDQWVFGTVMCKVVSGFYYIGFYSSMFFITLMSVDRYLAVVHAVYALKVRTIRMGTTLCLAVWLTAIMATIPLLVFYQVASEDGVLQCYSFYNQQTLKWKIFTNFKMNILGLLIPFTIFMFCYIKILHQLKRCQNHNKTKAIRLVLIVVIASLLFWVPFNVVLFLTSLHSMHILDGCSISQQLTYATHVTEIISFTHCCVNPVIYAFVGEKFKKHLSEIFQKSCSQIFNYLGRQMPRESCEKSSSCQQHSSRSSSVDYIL

B1: 11F5-N3S-Y5V-11F5 (antibody, V domains shown)
VH: EVQLVESGGGVVQPGRSLRLSCAASGFTFSSYVVHWVRQAPGKGLEWVAVISYDGDNKFYADSVKGRFTISRDNSKNTLYLQMNSLRTEDTAVYYCARGRSYVYYYGLDVWGQGTTVTVSS
VL: DIVMTQTPLSLSVTPGQPASISCKSSQSLLYSDGKTYLYWYLQKAGQPPQLLIYEVSNRFSGVPDRFSGSGSGTDFTLKISRVEAEDVGVFYCMQSLKVPPTFGQGTKVDIK
Take B1: the EC50 in the test with human CCR8 [1] was determined as 0.228 µg/mL; with mouse CCR8 [2] it was 0.129 µg/mL.

B2: 11F5-Y5V-Y6N-11F5 (antibody, V domains shown)
VH: EVQLVESGGGVVQPGRSLRLSCAASGFTFSSYVVHWVRQAPGKGLEWVAVISYDGDNKFYADSVKGRFTISRDNSKNTLYLQMNSLRTEDTAVYYCARGRNYVNYYGLDVWGQGTTVTVSS
VL: DIVMTQTPLSLSVTPGQPASISCKSSQSLLYSDGKTYLYWYLQKAGQPPQLLIYEVSNRFSGVPDRFSGSGSGTDFTLKISRVEAEDVGVFYCMQSLKVPPTFGQGTKVDIK
Turning to B2, the EC50 with human CCR8 [1] was determined as 0.592 µg/mL; with mouse CCR8 [2], 0.546 µg/mL.

B3: 11F5-SG-11F5-SG (antibody, V domains shown)
VH: EVQLVESGGGVVQPGRSLRLSCAASGFTFSSYVVHWVRQAPGKGLEWVAVISYSGDNKFYADSVKGRFTISRDNSKNTLYLQMNSLRTEDTAVYYCARGRNYYYYYGLDVWGQGTTVTVSS
VL: DIVMTQTPLSLSVTPGQPASISCKSSQSLLYSSGKTYLYWYLQKAGQPPQLLIYEVSNRFSGVPDRFSGSGSGTDFTLKISRVEAEDVGVFYCMQSLKVPPTFGQGTKVDIK
Regarding B3, the results for the EC50 with human CCR8 [3] and in the test with mouse CCR8 [4] were 0.033 µg/mL and 0.069 µg/mL, respectively.

B4: 11B12-11F8 (antibody, V domains shown)
VH: QVQLVESGGGVVQPGRSLRLSCAASGFSFSSYVMHWVRQAPGKGLEWVAVISYDGSDKYYADSVKGRFTISRDNSKNTLFLQMNSLRPEDTAVYYCARGRGYRYGQSYYYGMDVWGQGTTVTVSS
VL: DIVMTQTPLSLSVTPGQPASISCKSSQSLLYSDGKTYLYWYLQKPGQPPHLLIYEVSNRFSGVPKRFSGSGSGTDFTLKISRVEAEDVGVYYCMQSVKIPLTFGGGTKVEIK
For the molecule B4, the EC50 with human CCR8 [3] was 0.152 µg/mL; with mouse CCR8 [4] it was 0.1 µg/mL.

B5: 11F5-N3S-Y5V-Y6N-11F5 (antibody, V domains shown)
VH: EVQLVESGGGVVQPGRSLRLSCAASGFTFSSYVVHWVRQAPGKGLEWVAVISYDGDNKFYADSVKGRFTISRDNSKNTLYLQMNSLRTEDTAVYYCARGRSYVNYYGLDVWGQGTTVTVSS
VL: DIVMTQTPLSLSVTPGQPASISCKSSQSLLYSDGKTYLYWYLQKAGQPPQLLIYEVSNRFSGVPDRFSGSGSGTDFTLKISRVEAEDVGVFYCMQSLKVPPTFGQGTKVDIK
On to B5, for which the values for the 50% effective concentration (EC50) in the test with human CCR8 [1] and with mouse CCR8 [2] were 0.21 µg/mL and 0.141 µg/mL, respectively.

B6: 11F5-N3S-11F5 (antibody, V domains shown)
VH: EVQLVESGGGVVQPGRSLRLSCAASGFTFSSYVVHWVRQAPGKGLEWVAVISYDGDNKFYADSVKGRFTISRDNSKNTLYLQMNSLRTEDTAVYYCARGRSYYYYYGLDVWGQGTTVTVSS
VL: DIVMTQTPLSLSVTPGQPASISCKSSQSLLYSDGKTYLYWYLQKAGQPPQLLIYEVSNRFSGVPDRFSGSGSGTDFTLKISRVEAEDVGVFYCMQSLKVPPTFGQGTKVDIK
Turning to B6, the EC50 with human CCR8 [1] came out at 0.168 µg/mL; with mouse CCR8 [2], 0.119 µg/mL.

B7: 11B12-SG-11F8 (antibody, V domains shown)
VH: QVQLVESGGGVVQPGRSLRLSCAASGFSFSSYVMHWVRQAPGKGLEWVAVISYSGSDKYYADSVKGRFTISRDNSKNTLFLQMNSLRPEDTAVYYCARGRGYRYGQSYYYGMDVWGQGTTVTVSS
VL: DIVMTQTPLSLSVTPGQPASISCKSSQSLLYSDGKTYLYWYLQKPGQPPHLLIYEVSNRFSGVPKRFSGSGSGTDFTLKISRVEAEDVGVYYCMQSVKIPLTFGGGTKVEIK
Regarding B7, the EC50 with human CCR8 [3] was found to be 0.051 µg/mL; with mouse CCR8 [4] it was 0.055 µg/mL.

B8: 11F5-N3S-Y6N-11F5 (antibody, V domains shown)
VH: EVQLVESGGGVVQPGRSLRLSCAASGFTFSSYVVHWVRQAPGKGLEWVAVISYDGDNKFYADSVKGRFTISRDNSKNTLYLQMNSLRTEDTAVYYCARGRSYYNYYGLDVWGQGTTVTVSS
VL: DIVMTQTPLSLSVTPGQPASISCKSSQSLLYSDGKTYLYWYLQKAGQPPQLLIYEVSNRFSGVPDRFSGSGSGTDFTLKISRVEAEDVGVFYCMQSLKVPPTFGQGTKVDIK
As to B8, the EC50 in the test with human CCR8 [1] stood at 0.174 µg/mL; with mouse CCR8 [2] it was 0.105 µg/mL.

B9: 11F5-Y5V-11F5 (antibody, V domains shown)
VH: EVQLVESGGGVVQPGRSLRLSCAASGFTFSSYVVHWVRQAPGKGLEWVAVISYDGDNKFYADSVKGRFTISRDNSKNTLYLQMNSLRTEDTAVYYCARGRNYVYYYGLDVWGQGTTVTVSS
VL: DIVMTQTPLSLSVTPGQPASISCKSSQSLLYSDGKTYLYWYLQKAGQPPQLLIYEVSNRFSGVPDRFSGSGSGTDFTLKISRVEAEDVGVFYCMQSLKVPPTFGQGTKVDIK
On to B9, for which the results for the EC50 in the test with human CCR8 [1] and with mouse CCR8 [2] were 0.714 µg/mL and 0.762 µg/mL, respectively.

B10: 11F5-Y6N-11F5 (antibody, V domains shown)
VH: EVQLVESGGGVVQPGRSLRLSCAASGFTFSSYVVHWVRQAPGKGLEWVAVISYDGDNKFYADSVKGRFTISRDNSKNTLYLQMNSLRTEDTAVYYCARGRNYYNYYGLDVWGQGTTVTVSS
VL: DIVMTQTPLSLSVTPGQPASISCKSSQSLLYSDGKTYLYWYLQKAGQPPQLLIYEVSNRFSGVPDRFSGSGSGTDFTLKISRVEAEDVGVFYCMQSLKVPPTFGQGTKVDIK
As to B10, the EC50 is 0.254 µg/mL in the test with human CCR8 [1] and 0.198 µg/mL in the test with mouse CCR8 [2].

B11: 11B12-DNA-11B12 (antibody, V domains shown)
VH: QVQLVESGGGVVQPGRSLRLSCAASGFSFSSYVMHWVRQAPGKGLEWVAVISYDGSDKYYADSVKGRFTISRDNAKNTLFLQMNSLRPEDTAVYYCARGRGYRYGQSYYYGMDVWGQGTTVTVSS
VL: DIVMTQTPLSLSVTPGQPASISCKSSQSLLYSDGKTYLYWYLQKPGQPPQILIFEVSNRFSGVPDRFSGSGSGTDFTLKISRVEAEDVGVYYCMQSIKLPLTFGGGTKVEIK
B11: the EC50 was determined as 0.144 µg/mL with human CCR8 [3] and 0.084 µg/mL with mouse CCR8 [4].

B12: Leronlimab analog (antibody, V domains shown)
VH: EVQLVESGGGLVKPGGSLRLSCAASGYTFSNYWIGWVRQAPGKGLEWIGDIYPGGNYIRNNEKFKDKTTLSADTSKNTAYLQMNSLKTEDTAVYYCGSSFGSNYVFAWFTYWGQGTLVTVSS
VL: DIVMTQSPLSLPVTPGEPASISCRSSQRLLSSYGHTYLHWYLQKPGQSPQLLIYEVSNRFSGVPDRFSGSGSGTDFTLKISRVEAEDVGVYYCSQSTHVPLTFGQGTKVEIK
As to B12, the binding result with human CCR8 [5], in the test with human CCR4, with human CCR2 and with human CX3CR1 was “no binding” in each case.

B13: Plozalizuzumab analog (antibody, V domains shown)
VH: EVQLVESGGGLVKPGGSLRLSCAASGFTFSAYAMNWVRQAPGKGLEWVGRIRTKNNNYATYYADSVKDRFTISRDDSKNTLYLQMNSLKTEDTAVYYCTTFYGNGVWGQGTLVTVSS
VL: DVVMTQSPLSLPVTLGQPASISCKSSQSLLDSDGKTFLNWFQQRPGQSPRRLIYLVSKLDSGVPDRFSGSGSGTDFTLKISRVEAEDVGVYYCWQGTHFPYTFGQGTRLEIK
In the case of B13, the binding result with human CCR8 [5], with human CCR4, with human CCR5 and with human CX3CR1 was “no binding” in each case.

By EC50 is commonly meant the concentration needed to bring the measured effect to its halfway point. Higher therefore signals a less potent agent.
